This note sets out measurements from PMC5022061, “A Rapid and Efficient Luminescence-based Method for Assaying Phosphoglycosyltransferase Enzymes” (Scientific Reports, 2016).

The test system of series [1] is CC(=O)N[C@H]1[C@@H](OP(=O)(O)OP(=O)(O)OC[C@H]2O[C@@H](n3ccc(=O)[nH]c3=O)[C@H](O)[C@@H]2O)O[C@H](C)[C@@H](NC(C)=O)[C@@H]1O. The series can be described thus: purified protein. To be noted: 60 μM Und-P, 5 mM MgCl2, pH 7.5, room temperature, 0.1% Triton X-100, 10% DMSO.
Series [2] concerns CC(C)=CCC/C(C)=C/CC/C(C)=C/CC/C(C)=C\CC/C(C)=C\CC/C(C)=C\CC/C(C)=C\CC/C(C)=C\CC/C(C)=C\CC/C(C)=C\CC/C(C)=C\COP(=O)(O)O. Kind of series: purified protein. To be noted: 80 μM UDP-diNAcBac, 5 mM MgCl2, pH 7.5, room temperature, 0.1% Triton X-100, 10% DMSO.
Series [3] has as its target T1, PglC from H. pullorum (PglC (H. pu)) (Helicobacter pullorum, UniProt E1B268).
T1 construct: N-terminal His6-SUMO tag, tag cleavage not mentioned; E. coli BL21-RIL; DDM-solubilized membrane fraction, Ni-NTA
Kind of series: UMP-Glo luminescence (UMP release), time course. Particulars: 20 μM UDP-GlcNAc; 20 μM Und-P; 0.3 μM enzyme; 5 mM MgCl2; pH 7.5; 0.1% Triton X-100; 10% DMSO. Format: biochemical.

T1 sequence (E1B268 entry or part of it): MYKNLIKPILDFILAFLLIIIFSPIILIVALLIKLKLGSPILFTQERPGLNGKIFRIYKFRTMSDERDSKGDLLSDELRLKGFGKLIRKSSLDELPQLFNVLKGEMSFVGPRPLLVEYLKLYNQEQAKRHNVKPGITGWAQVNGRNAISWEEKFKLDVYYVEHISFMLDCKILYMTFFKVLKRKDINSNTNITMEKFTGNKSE

For orientation: Km means the concentration of substrate that gives half-maximal velocity. For orientation: kcat means the number of substrate molecules converted per active site and unit of time at saturation. For “PglC from Campylobacter jejuni (SUMO-PglC) (Campylobacter jejuni subsp. jejuni NCTC 11168 = ATCC 700819)”, in series [1], the Km turned out to be 24.61 ± 3.30 µM and the kcat was 5.67 ± 0.333 s⁻¹. Besides, in series [2], the Km came out at 7.18 ± 1.37 µM and the kcat is 5.17 ± 0.333 s⁻¹.

Consider `CC(=O)N[C@H]1[C@@H](OP(=O)(O)OP(=O)(O)OC[C@H]2O[C@@H](n3ccc(=O)[nH]c3=O)[C@H](O)[C@@H]2O)O[C@H](CO)[C@@H](O)[C@@H]1O` [UDP-GlcNAc], for which, in series [3], the “UMP-Glo luminescence (UMP release), time course” value is “demonstrates that the H. pullorum PglC catalyzes turnover of these substrates”.

Regarding `CC(C)=CCC/C(C)=C/CC/C(C)=C/CC/C(C)=C\CC/C(C)=C\CC/C(C)=C\CC/C(C)=C\CC/C(C)=C\CC/C(C)=C\CC/C(C)=C\CC/C(C)=C\COP(=O)(O)O` [Und-P], in series [3], the “UMP-Glo luminescence (UMP release), time course” value is recorded as “demonstrates that the H. pullorum PglC catalyzes turnover of these substrates”.
